Test system: TNF expression in HUVEC cell culture

Substance: Gly-Asp-Cys-Pro-Pro-Trp-Cys-Gly-Ala-Arg-Cys-(XXX)-Cys [SEQ ID NO:1 scaffolding protein]
- toxic activity (activity of the toxin): does not present any type of toxic activity

From patent US20230374072A1 (priority 2020, published 2023)
